For series [1], the target named is T1, Recombinant human ADAM10 ectodomain (Homo sapiens, UniProt O14672).
T1 construct: Recombinant human ADAM10 ectodomain
T1 sequence (O14672 214-672 limits assumed): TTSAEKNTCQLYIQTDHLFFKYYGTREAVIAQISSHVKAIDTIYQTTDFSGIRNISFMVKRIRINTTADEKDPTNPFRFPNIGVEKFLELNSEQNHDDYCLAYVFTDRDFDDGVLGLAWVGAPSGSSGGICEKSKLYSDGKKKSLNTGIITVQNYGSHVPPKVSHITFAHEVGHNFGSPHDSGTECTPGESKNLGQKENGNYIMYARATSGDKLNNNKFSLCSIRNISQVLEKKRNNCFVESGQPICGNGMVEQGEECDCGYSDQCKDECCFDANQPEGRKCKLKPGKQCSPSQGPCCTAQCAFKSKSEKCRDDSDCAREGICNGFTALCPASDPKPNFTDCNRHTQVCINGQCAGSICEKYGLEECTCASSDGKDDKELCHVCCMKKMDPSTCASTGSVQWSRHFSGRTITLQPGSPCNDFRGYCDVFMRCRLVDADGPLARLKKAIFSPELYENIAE
Description: ADAM10 quench fluorescent peptide cleavage assay. To be noted: titrated concentrations. Format: biochemical.

The target in series [2] is T2, Recombinant human TACE catalytic domain (Homo sapiens, UniProt P78536).
T2 construct: The mature catalytic domain of TACE (Arg^215-Val^477-GlySer-His^6) was prepared using an identical baculovirus system; GlySer-His6 (C); made in house; host or cells: baculovirus system (Sf9)
Description: Quenched fluorescent peptide cleavage assay, isolated TACE catalytic domain. In kind it is biochemical. To be noted: 1 nM TACE catalytic domain; read-out: IC50 Cat:WT, isolated catalytic domain, quenched fluorescent peptide. On the procedure: (§1) Recombinant human TACE catalytic domain and TACE ectodomain were diluted to 1 nM in 50 mM Tris-HCl, 10 mM CaCl2, 0.05% Brij35, 1% DMSO, pH 7.4 and pre-incubated with titrated concentrations of inhibitor for 4-hours at room temperature. Following incubation, each reaction was separated into 200 μL technical quadruplets in a 96-well black Microwell plate (Nunc 237105), and the fluorogenic substrate methoxycoumarinyl acetyl-Lys-Pro-Leu-Gly-Leu-dinitrophenyl diaminopropionyl-Ala-Arg-NH2 (Peptides International SMO-3670-PI) was added to each well (final concentration 1 μM). Every 30 seconds fluorescence was excited at 320 nm and emission recorded at 405 nm in a Tecan Infinite-200 (at 37° C. for 2000 seconds). Individual readings were normalised against a substrate only control and compiled to produce a mean trend for each variable. A linear regression slope for each reaction was calculated in GraphPad Prism (ΔFU sec^−1) and proteolytic activity was expressed as the slope percentage of an untreated control (% ΔFU sec^−1). Final results represent mean values from three separate experiments.
(§2) Purified recombinant scFvs were subjected to an 8-point fluorometric titration ([TACE]=1 nM) (as above) and a 16-point titration ELISA ([TACE]-500 nM). […] Change in Gibb's Free Energy (ΔΔG) was calculated using the equation: ΔΔG=+RT1n(Ala/WT).

Series [3] addresses T3, PDI treated TACE ectodomain (Homo sapiens, UniProt P78536).
T3 construct: Mature recombinant TACE ectodomain (Arg^215-Arg^651) was expressed in baculovirus infected sf9 cells; made in house; host or cells: baculovirus infected Sf9 cells
Description: Antibody binding after PDI treatment of the TACE ectodomain.

Series [4] has as its target T4, Recombinant human TACE ectodomain (Arg215-Arg651) (Homo sapiens, UniProt P78536).
T4 construct: Mature recombinant TACE ectodomain (Arg^215-Arg^651) was expressed in baculovirus infected sf9 cells; made in house; host or cells: baculovirus infected Sf9 cells
Description: Quenched fluorescent peptide cleavage assay, TACE ectodomain. To be noted: 1 nM TACE ectodomain; read-out: IC50, TACE ectodomain proteolysis, quenched fluorescent peptide. Format: biochemical. On the procedure:
as §1, §2

Data on two molecules can be found in US9150659B2, “Anti-tace antibody molecules and their uses” (priority 2011, dated 2015).

A word on the IC50: it is the concentration that inhibits the measured activity by half.

T4 sequence (P78536 215-651): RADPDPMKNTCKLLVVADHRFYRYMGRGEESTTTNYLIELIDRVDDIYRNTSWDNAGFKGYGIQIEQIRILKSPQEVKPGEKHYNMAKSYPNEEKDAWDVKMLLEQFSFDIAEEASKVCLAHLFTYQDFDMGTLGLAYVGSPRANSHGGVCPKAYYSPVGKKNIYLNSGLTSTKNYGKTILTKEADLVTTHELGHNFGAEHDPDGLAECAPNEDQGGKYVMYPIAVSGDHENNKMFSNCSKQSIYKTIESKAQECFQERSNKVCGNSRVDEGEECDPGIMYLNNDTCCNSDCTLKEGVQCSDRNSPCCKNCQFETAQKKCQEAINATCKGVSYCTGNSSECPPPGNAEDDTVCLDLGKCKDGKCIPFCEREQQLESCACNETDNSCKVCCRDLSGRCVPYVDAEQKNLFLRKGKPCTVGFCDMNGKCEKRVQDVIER
T3 sequence (P78536 215-651): as above
T2 sequence (P78536 215-477): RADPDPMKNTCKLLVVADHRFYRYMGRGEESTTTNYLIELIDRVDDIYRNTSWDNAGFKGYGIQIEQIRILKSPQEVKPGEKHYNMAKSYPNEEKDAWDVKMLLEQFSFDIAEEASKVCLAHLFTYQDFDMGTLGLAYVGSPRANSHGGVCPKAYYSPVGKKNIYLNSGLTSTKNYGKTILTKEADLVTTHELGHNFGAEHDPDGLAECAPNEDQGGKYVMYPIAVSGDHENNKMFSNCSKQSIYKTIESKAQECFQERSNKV

On to `CC(C)(C)[C@H](NC(=O)[C@H](CCCc1ccc(Cl)cc1)CC(=O)NO)C(N)=O` [CT1746, reference compound], for which, in series [1], the “effect on ADAM10 proteolytic activity” value is listed as “rapidly inhibits”.

B1: D1(A12) scFv: scFv format; VH SEQ ID NO: 7, VL SEQ ID NO: 9 (antibody, listed as Homo sapiens, V domains shown)
VH: EVQLVESGGGLVRPGGSLRLSCAASGFTFSSYAMSWVRQAPGKGLEWVSAISGSGGSTYYADSVKGRFTISRDNTKNSLYLQMTSLRADDTAFYYCVKDFGPGYGTGWFDYWGPGTLVTVSA
VL: SDIQMTQSPSSLSASVGDRVTITCRASQSISSYLNWYQQKPGKAPKLLIHDASSLQSGVPSRFSGSGSGTDFTLTISSLQPEDFATYYCQQSFSIPLTFGGGTKMDIKR
modifications: scFv linker
Take B1: the IC50 in series [2] was 2.3 nM; in series [4], 0.89 nM. In addition, the “immunoreactivity following PDI treatment of the TACE ectodomain” value in series [3] is “largely resistant to PDI modulation”.
